“Also recorded” adds a separate entry of the source.
Key:
CHO = assay: Proliferation of other cell lines: CHO; assay type: cell-based; settings: even at high concentration
tumor cell line Calu-6 = assay: Proliferation of other cell lines: Calu-6; assay type: cell-based, human; settings: even at high concentration
[1] = Body weight and toxicity monitoring of mice bearing CALU-6 tumors; settings: CALU-6 bearing Nude mice, 497C-T2 10 mg/kg IP
Procedure: Injections in groups 1, 2, 3 and 4 were performed according to the schedules Q2DX8, i.e. 1 quantity every two days, eight times.
CDDP was resuspended in sterile physiological serum at a concentration of 0.5 mg/mL and injected IP at a concentration of 5 mg/kg at a volume of 10 mL/kg, according to the treatment schedule Q2DX8.
Ketamine/Xylazine (80 mg/kg-12 mg/kg; Ref. K-113, Sigma, France) was used to anaesthetize the animals before sacrifice by cervical dislocation.

NCI H460 human tumor = NCI H460 human tumor xenograft in Swiss Nude mice, tumor growth; assay type: in vivo; design: key to MRTV D28 / MRTV D12 / MRTV D14 / MRTV D16 / MRTV D18 / MRTV D20 / MRTV D22 / MRTV D24 / MRTV D26: ratio of mean tumor volume at day t to volume at injection (D12); settings: for MRTV D12: reference day
Procedure: NCI H460 cells were cultured as adherent cells in complete RPMI 1640 medium (Ref. CM1RRM08-01, batch No. 623615, Eurobio, France) containing 2 mM L-Glutamine, adjusted to 4.5 g/L glucose (Ref. G7528, batch No. 033K0121, Sigma, France) and supplemented with 10 mM HEPES (Ref. H0887, batch No. 113K2338, Sigma, France), 1.0 mM sodium pyruvate (Ref. CSTVAT00-0U, batch No. 520818, Sigma, France) and 10% fetal calf serum (FCS; Ref. CVFSVF00-01, batch No. S13021, Eurobio, France) under a 37° C., 5% CO2 humidified atmosphere. They were amplified in 75 cm^2-flasks to reach 90×10^6 cells.
At D0, NCI H460 cells (human lung carcinoma) were collected from 75 cm^2-flasks by removing the medium and adding 3 ml of trypsine-EDTA (Ref. CEZTDA00-0U, batch No. 633920, Eurobio, France). After 5 min of incubation at 37° C., cells were detached from the plastic and the enzymatic reaction was stopped by adding 3 ml of RPMI 1640 medium containing 10% fetal calf serum. Cells were then centrifuged at 700 g for 5 min at room temperature. They were resuspended in serum-free RPMI 1640 culture medium containing L-Glutamine (2 mM), glucose (4.5 g/l), sodium pyruvate (1 mM) and buffered with HEPES (10 mM). Cells were counted and the number of viable NCI H460 cells was >99%. The number of cells was then adjusted to 25.10^6 cells/ml in serum-free medium.
NCI H460 cells (5.10^6 cells/mouse in 200 μL of serum-free medium) were then implanted subcutaneously in the right flank of each mouse.
At D12 post-implantation of the NCI H460 cells, the thirty mice were randomized into six groups of 5 mice. Tumor volumes had reached 228 to 468 mm^3 and mean tumor volumes were not statistically different between groups after randomization.
All solutions were injected IP.
Animals have been observed daily.
• Tumor growth curves were drawn using the mean tumor volumes (MTV), • Mean Relative tumor volume (MRTV) was calculated as the ratio between the MTV at time t and the volume at the time of injection (t=D12), • Tumor growth inhibition (T/C, %) was evaluated as the ratio of the median tumor volumes of treated groups versus vehicle group.
Statistical analyses of tumor volumes (V), time to reach ‘V’, tumor-doubling time (DT), relative tumor volume (RTV) and tumor growth inhibition (T/C) were performed for all groups. Data are expressed as mean±SD. Groups of data were normally distributed. Univariate analysis were performed to assess differences between groups. Statistical significance was then determined using the Student's t test. A P<0.05 was considered as statistically significant. The Statistical analysis was performed using XLSTAT (Addinsoft, France).

[2] = 497C-T2 10 mg/kg IP Q1DX16 (G4)
[3] = 497C-T2 10 mg/kg IP Q1DX16 (G4), 10 mg/kg
[4] = 497C-T2 10 mg/kg IP Q1DX16 (G4), listed as 497C-T2-Batch A
[5] = 497C-T2 10 mg/kg IP once daily Q1DX16 (G4)
[6] = IP Q2DX8, CDDP 5 mg/kg (G2), 497C-T2 10 mg/kg (G3), 497C-T2 10 mg/kg + CDDP 5 mg/kg (G5)
[7] = IP Q2DX8, CDDP 5 mg/kg (G2), 497C-T2 10 mg/kg (G3), 497C-T2 10 mg/kg + CDDP 5 mg/kg (G5), listed as 497C-T2-Batch A

B1: 497C-T2: entire LEL domain of protein 497C, SEQ ID NO:3 (112 amino acids); as produced SEQ ID NO:8, with N-terminal His-Tag and C-terminal tail, 24 kD (protein, listed as Homo sapiens)
chain: MHHHHHHSSGLVPRGSGMKETAAAKFERQHMDSPDLGTDDDDKISGFVFRHEIKDTFLRTYTDAMQTYNGNDERSRAVDHVQRSLSCCGVQNYTNWSTSPYFLEHGIPPSCCMNETDCNPQDLHNLTVAATKVNQKGCYDLVTSFMETNMGIIAGDRASPQPWRYRIRILAPSTSLRPHSSTTTTTTXIRLLTKPERKLSWLLPPLSNN
modifications: X: residue not identified in the source
For B1, the “anti-proliferative effect” value (CHO) was “without any detectable anti-proliferative effect”, the “anti-proliferative effect” value (tumor cell line Calu-6) was “without any detectable anti-proliferative effect” and the “toxicity during the course of the treatment” value [1] was “No toxicity was observed; also recorded: not toxic”. The “MTV at D14” value (NCI H460 human tumor; [2]) was 468.85 mm^3, the “MTV at D24” value (NCI H460 human tumor; [2]) was 2289.22 mm^3 and the “T/C at D14 (treated/vehicle tumor volume ratio)” value (NCI H460 human tumor; [2]) was 46.90%. For the same molecule, the “T/C at D24 (treated/vehicle tumor volume ratio)” value (NCI H460 human tumor; [2]) was 71.04%, the “DT (doubling time of tumor volume)” value (NCI H460 human tumor; [3]) was 5.9 ± 1.21 days and the “MTV at D28” value (NCI H460 human tumor; [3]) was 3167±1681 mm^3. The “T/C at D28 (treated/vehicle tumor volume ratio)” value (NCI H460 human tumor; [3]) was 71%, the “DT (doubling time of tumor volume)” value (NCI H460 human tumor; [4]) was 5.9 days and the “MTV at D28” value (NCI H460 human tumor; [4]) was 3167.34 mm^3. For the same molecule, the “T/C at D28 (treated/vehicle tumor volume ratio)” value (NCI H460 human tumor; [4]) was 71.32%, the “MRTV D14” value (NCI H460 human tumor; [5]) was 1.08 and the “MRTV D16” value (NCI H460 human tumor; [5]) was 1.00. For the same molecule, the “MRTV D18” value (NCI H460 human tumor; [5]) was 1.69, the “MRTV D20” value (NCI H460 human tumor; [5]) was 2.63 and the “MRTV D22” value (NCI H460 human tumor; [5]) was 3.08. For the same molecule, the “MRTV D24” value (NCI H460 human tumor; [5]) was 3.08, the “MRTV D26” value (NCI H460 human tumor; [5]) was 4.89 and the “MRTV D28” value (NCI H460 human tumor; [5]) was 6.76. The “DT (doubling time of tumor volume)” value (NCI H460 human tumor; [6]) was 4.08 ± 1.4 days, the “MRTV D14” value (NCI H460 human tumor; [6]) was 1.37 and the “MRTV D16” value (NCI H460 human tumor; [6]) was 1.70. For the same molecule, the “MRTV D18” value (NCI H460 human tumor; [6]) was 2.46, the “MRTV D20” value (NCI H460 human tumor; [6]) was 2.81 and the “MRTV D22” value (NCI H460 human tumor; [6]) was 3.30. For the same molecule, the “MRTV D24” value (NCI H460 human tumor; [6]) was 3.22, the “MRTV D26” value (NCI H460 human tumor; [6]) was 5.80 and the “MRTV D28” value (NCI H460 human tumor; [6]) was 7.37. The “MTV at D14” value (NCI H460 human tumor; [6]) was 571.00 mm^3, the “MTV at D24” value (NCI H460 human tumor; [6]) was 1955.02 mm^3 and the “MTV at D28” value (NCI H460 human tumor; [6]) was 2482±2075 mm^3. For the same molecule, the “T/C at D14 (treated/vehicle tumor volume ratio)” value (NCI H460 human tumor; [6]) was 57.12%, the “T/C at D24 (treated/vehicle tumor volume ratio)” value (NCI H460 human tumor; [6]) was 60.67% and the “T/C at D28 (treated/vehicle tumor volume ratio)” value (NCI H460 human tumor; [6]) was 56%. The “DT (doubling time of tumor volume)” value (NCI H460 human tumor; [7]) was 4.08 days, the “MTV at D28” value (NCI H460 human tumor; [7]) was 2481.61 mm^3 and the “T/C at D28 (treated/vehicle tumor volume ratio)” value (NCI H460 human tumor; [7]) was 55.88%. The “anti-tumoral activity” value (NCI H460 human tumor; NCI H460, monotherapy (G3, G4) or combined with CDDP (G5, G6)) was “moderate anti-tumoral activity”, the “MRTV D12” value (NCI H460 human tumor; [5]) was 1.00 and the “MRTV D12” value (NCI H460 human tumor; [6]) was 1.00.

From patent US8372810B2, “Anti-tumor drug, medicament, composition, and use thereof” (Gene Signal International SA, priority 2007, dated 2013)
